Data reported in US20260234188A1, “CHEMOKINE-BINDING PEPTIDES” (Oxford University Innovation Limited, priority 2022, published 2026).

Biological target: CXL10_HUMAN (human) (UniProt P02778)
Assay: cell-based or functional assay

Chain of CXL10_HUMAN (human) (P02778 22-98 limits assumed): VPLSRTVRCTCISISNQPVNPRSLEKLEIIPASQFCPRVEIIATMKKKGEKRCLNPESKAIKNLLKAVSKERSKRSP

**Q.** How did the cell migration turn out when “EVA4_RHISA protein (from UniProt P0C8E9 24-127)” was run?
**A.** The cell migration was 20 µM.
